Data as given in article PMC4479010.

Target: GFP monomer (GFP 11 linked to the N terminus of GFP 1–10), net charge −3 [GFP: P42212]
Assay: PAGE with 0.1% SDS + SEC; GFP oligomer mixture; SEC on Superdex 200 10/300 GL, 0.5 ml/min, 500 mM NaCl, 50 mM Tris pH 8.0 or PBS

GFP monomer (GFP 11 linked to the N terminus of GFP 1–10), net charge −3 (from UniProt P42212 215-230; P42212 1-214) (designed binder)
percent of expressed monomers polymerized to oligomers above the dimer: 50%
